Measurements from publication PMC7935256.

Legend:
[1] = target: DENV1 PVP159 strain recombinant E protein ectodomain (residues 1-394) (dengue virus serotype 1, strain PVP159); experiment: dynamic light scattering; recombinant E proteins in 20 mM Tris pH 8.0, 200 mM NaCl, 0.025% Tween-20
[2] = target: human monoclonal antibody (HMAb) 1C19, IgG (human); experiment: BLI
[3] = target: DENV1 WestPac74 strain recombinant E protein ectodomain (residues 1-394) (dengue virus serotype 1, strain WestPac 74); experiment: dynamic light scattering; recombinant E proteins in 20 mM Tris pH 8.0, 200 mM NaCl, 0.025% Tween-20
[4] = target: DENV2 NGC strain recombinant E protein ectodomain (residues 1-394) (dengue virus serotype 2, strain NGC); experiment: as above
[5] = target: DENV2 PVP94/07 strain recombinant E protein ectodomain (residues 1-394) (dengue virus serotype 2, strain PVP94/07); experiment: as above
[6] = target: E protein on DENV1 strain WestPac 74 virus particles (dengue virus serotype 1, strain WestPac 74); experiment: cryo-EM structure

Chain of human monoclonal antibody (HMAb) 1C19, IgG (human) (heavy, as listed by the source, chain 1 of 2): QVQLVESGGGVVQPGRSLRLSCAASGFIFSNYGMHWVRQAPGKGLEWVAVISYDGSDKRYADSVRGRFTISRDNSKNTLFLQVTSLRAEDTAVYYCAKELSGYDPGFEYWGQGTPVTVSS
Chain of human monoclonal antibody (HMAb) 1C19, IgG (human) (light, as listed by the source, chain 2 of 2): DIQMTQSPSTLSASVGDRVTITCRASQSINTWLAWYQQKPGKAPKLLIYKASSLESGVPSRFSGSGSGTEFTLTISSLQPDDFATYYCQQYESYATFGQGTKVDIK

Substance “DENV1 PVP159 strain recombinant E protein ectodomain (residues 1-394) (domain or fragment)” has a stoichiometry N [1] of 2 and a Kd [2] of 0.712 nM.
“DENV1 WestPac74 strain recombinant E protein ectodomain (residues 1-394) (domain or fragment)” gave a stoichiometry N [3] of 2.
Substance “DENV2 NGC strain recombinant E protein ectodomain (residues 1-394) (domain or fragment)” has a stoichiometry N [4] of 2.
“DENV2 PVP94/07 strain recombinant E protein ectodomain (residues 1-394) (domain or fragment)” showed a stoichiometry N [5] of 2.
For Fab 1C19, the copies of Fab bound per virus particle (180 E proteins), Class I [6] was 60 copies and the copies of Fab bound per virus particle (180 E proteins), Class II [6] was 60 copies.
